Targets include leptin-dimer Ab1 (UniProt P41159); leptin-monomer Ab1 (UniProt P41159); leptin-dimer kemptide (UniProt P41159).
In data set [1] the target is T1, malic enzyme-monomer kemptide (UniProt P26616).
T1 sequence: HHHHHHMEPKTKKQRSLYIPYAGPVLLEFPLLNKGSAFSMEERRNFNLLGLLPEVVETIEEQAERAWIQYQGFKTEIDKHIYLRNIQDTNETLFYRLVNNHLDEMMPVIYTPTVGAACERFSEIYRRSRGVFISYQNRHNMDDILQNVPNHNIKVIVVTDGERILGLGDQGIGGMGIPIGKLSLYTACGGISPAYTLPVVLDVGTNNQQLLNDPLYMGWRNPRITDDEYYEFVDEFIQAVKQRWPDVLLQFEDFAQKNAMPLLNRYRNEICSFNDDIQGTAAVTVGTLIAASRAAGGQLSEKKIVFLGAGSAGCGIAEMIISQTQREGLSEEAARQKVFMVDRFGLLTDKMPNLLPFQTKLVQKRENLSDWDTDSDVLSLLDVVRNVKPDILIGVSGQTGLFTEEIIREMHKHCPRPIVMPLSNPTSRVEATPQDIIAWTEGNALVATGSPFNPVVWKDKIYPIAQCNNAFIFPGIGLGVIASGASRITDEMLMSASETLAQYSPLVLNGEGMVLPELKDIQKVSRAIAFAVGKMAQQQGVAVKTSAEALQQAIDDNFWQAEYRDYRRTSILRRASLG

Sequence of leptin-dimer kemptide (P41159 other isoform, or with tags, fused parts or gaps): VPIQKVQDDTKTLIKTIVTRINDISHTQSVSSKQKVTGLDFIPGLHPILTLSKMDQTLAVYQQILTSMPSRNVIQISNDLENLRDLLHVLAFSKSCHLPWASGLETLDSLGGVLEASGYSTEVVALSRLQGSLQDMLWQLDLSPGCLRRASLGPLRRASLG
Sequence of leptin-monomer Ab1 (P41159 other isoform, or with tags, fused parts or gaps): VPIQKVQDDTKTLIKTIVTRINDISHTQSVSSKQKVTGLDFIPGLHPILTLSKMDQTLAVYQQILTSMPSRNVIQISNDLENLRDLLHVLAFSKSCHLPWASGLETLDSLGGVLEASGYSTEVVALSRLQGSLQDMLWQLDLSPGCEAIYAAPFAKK
Sequence of leptin-dimer Ab1 (P41159 other isoform, or with tags, fused parts or gaps): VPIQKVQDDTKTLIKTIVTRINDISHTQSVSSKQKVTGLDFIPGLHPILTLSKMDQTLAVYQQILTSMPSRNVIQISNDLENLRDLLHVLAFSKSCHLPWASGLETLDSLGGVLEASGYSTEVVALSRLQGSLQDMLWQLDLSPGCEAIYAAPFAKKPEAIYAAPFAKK

As to Ab1 kinase, the “fluorometric analysis of phosphorylation on protein chip (Cy5-labeled anti-phosphorylation tyrosine antibody)” value with leptin-dimer Ab1 is “the Ab1 kinase showed a specific interaction with the Ab1 monomer and dimer fused with leptin”; with leptin-monomer Ab1, “the Ab1 kinase showed a specific interaction with the Ab1 monomer and dimer fused with leptin”.
Turning to protein kinase A, in the data set with leptin-dimer kemptide, the “fluorometric analysis of phosphorylation on protein chip, 10-fold diluted spots” value was “In a diluted state as shown by 2 and 4, the dimer showed a higher reactivity than the monomer”. The “fluorometric analysis of phosphorylation on protein chip (Cy3-labeled anti-phosphorylation serine antibody)” value in data set [1] was “the protein kinase A showed a specific interaction with the kemptide of a form fused with the leptin or malic enzyme”.

These data come from patent US20060105407.
